# B1: Syntenin-1 (Mus musculus), O08992 (parent)
# chain: MSLYPSLEDLKVDKVIQAQTAYSANPASQAFVLVDASAALPPDGNLYPKLYPELSQYMGLSLNEAEICESMPMVSGAPAQGQLVARPSSVNYMVAPVTGNDAGIRRAEIKQGIREVILCKDQDGKIGLRLKSIDNGIFVQLVQANSPASLVGLRFGDQVLQINGENCAGWSSDKAHKVLKQAFGEKITMTIRDRPFERTVTMHKDSSGHVGFIFKSGKITSIVKDSSAARNGLLTDHHICEINGQNVIGLKDAQIADILSTAGTVVTITIMPTFIFEHIIKRMAPSIMKSLMDHTIPEV
# partner: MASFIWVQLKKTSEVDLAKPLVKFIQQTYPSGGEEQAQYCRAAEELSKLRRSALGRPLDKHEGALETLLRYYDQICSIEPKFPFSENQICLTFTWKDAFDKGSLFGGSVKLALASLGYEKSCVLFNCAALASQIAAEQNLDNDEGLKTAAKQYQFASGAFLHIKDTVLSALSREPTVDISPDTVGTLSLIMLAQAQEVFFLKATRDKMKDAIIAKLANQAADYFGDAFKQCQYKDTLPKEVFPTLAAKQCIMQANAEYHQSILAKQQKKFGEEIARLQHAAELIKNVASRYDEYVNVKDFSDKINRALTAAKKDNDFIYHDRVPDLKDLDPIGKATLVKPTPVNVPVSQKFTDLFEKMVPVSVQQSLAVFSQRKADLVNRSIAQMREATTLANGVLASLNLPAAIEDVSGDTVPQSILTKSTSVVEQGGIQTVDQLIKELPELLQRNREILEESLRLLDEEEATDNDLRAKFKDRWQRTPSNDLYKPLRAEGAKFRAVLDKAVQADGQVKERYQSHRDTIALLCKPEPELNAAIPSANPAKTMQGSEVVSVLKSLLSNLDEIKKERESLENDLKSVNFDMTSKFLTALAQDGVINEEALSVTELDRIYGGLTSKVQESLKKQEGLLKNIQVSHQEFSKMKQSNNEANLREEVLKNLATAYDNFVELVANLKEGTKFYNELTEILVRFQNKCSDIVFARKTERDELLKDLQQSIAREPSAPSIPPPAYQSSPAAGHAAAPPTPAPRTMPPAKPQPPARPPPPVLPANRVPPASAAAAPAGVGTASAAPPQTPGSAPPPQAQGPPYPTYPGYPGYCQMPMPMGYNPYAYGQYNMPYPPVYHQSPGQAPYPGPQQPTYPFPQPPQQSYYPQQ
# Variants of: B1
# Conditions: with pdc6i_mouse Pdcd6ip
row,effect of a mutation on the interaction,Variant
1,disrupting interaction,MSLYPSLEDLKVDKVIQAQTAYSANPASQAFVLVDASAALPPDGNLYPKLAAELSQYMGLSLNEAEICESMPMVSGAPAQGQLVARPSSVNYMVAPVTGNDAGIRRAEIKQGIREVILCKDQDGKIGLRLKSIDNGIFVQLVQANSPASLVGLRFGDQVLQINGENCAGWSSDKAHKVLKQAFGEKITMTIRDRPFERTVTMHKDSSGHVGFIFKSGKITSIVKDSSAARNGLLTDHHICEINGQNVIGLKDAQIADILSTAGTVVTITIMPTFIFEHIIKRMAPSIMKSLMDHTIPEV [Y51A;P52A]
2,disrupting interaction,MSLAASLEDLKVDKVIQAQTAYSANPASQAFVLVDASAALPPDGNLAAKLAAELSQYMGLSLNEAEICESMPMVSGAPAQGQLVARPSSVNYMVAPVTGNDAGIRRAEIKQGIREVILCKDQDGKIGLRLKSIDNGIFVQLVQANSPASLVGLRFGDQVLQINGENCAGWSSDKAHKVLKQAFGEKITMTIRDRPFERTVTMHKDSSGHVGFIFKSGKITSIVKDSSAARNGLLTDHHICEINGQNVIGLKDAQIADILSTAGTVVTITIMPTFIFEHIIKRMAPSIMKSLMDHTIPEV [Y4A;P5A;Y47A;P48A;Y51A;P52A]

# Variants of: B1
# Conditions: with pdc6i_mouse Pdcd6ip
# Remark: another data set of the same source
row,effect of a mutation on the interaction,Variant
1,disrupting interaction,MSLAASLEDLKVDKVIQAQTAYSANPASQAFVLVDASAALPPDGNLAAKLAAELSQYMGLSLNEAEICESMPMVSGAPAQGQLVARPSSVNYMVAPVTGNDAGIRRAEIKQGIREVILCKDQDGKIGLRLKSIDNGIFVQLVQANSPASLVGLRFGDQVLQINGENCAGWSSDKAHKVLKQAFGEKITMTIRDRPFERTVTMHKDSSGHVGFIFKSGKITSIVKDSSAARNGLLTDHHICEINGQNVIGLKDAQIADILSTAGTVVTITIMPTFIFEHIIKRMAPSIMKSLMDHTIPEV [Y4A;P5A;Y47A;P48A;Y51A;P52A]

# From IntAct's records for PubMed 22660413
